Substrate: CCn1c(=NN=c2sc3cc(S(=O)(=O)O)ccc3n2CC)sc2cc(S(=O)(=O)O)ccc21
Assay: purified protein
Assay type: biochemical, Pleurotus ostreatus
Details: 50 μL of 1 mM H2O2 in 200 μL (0.25 mM), 0.1 M citric acid–0.2 M Na2HPO4 pH 3.4, ambient temperature

B1: DyP4 (dye-decolorizing peroxidase 4) (Pleurotus ostreatus PC15) (protein)
chain: MTTPAPPLDLNNIQGDILGGLPKRTETYFFFDVTNVDQFKANMAHFIPHIKTSAGIIKDREAIKEHKRQKKPGLVPMAAVNVSFSHLGLQKLGITDDLSDNAFTTGQRKDAEILGDPGSKNGDAFTPAWEAPFLKDIHGVIFVAGDCHGSVNKKLDEIKHIFGVGTSHASISEVTHVRGDVRPGDVHAHEHFGFLDGISNPAVEQFDQNPLPGQDPIRPGFILAKENGDSRAAARPDWAKDGSFLTFRYLFQMVPEFDDFLESNPIVLPGLSRKEGSELLGARIVGRWKSGAPIEITPLKDDPKLAADAQRNNKFDFGDSLVRGDQTKCPFAAHIRKTYPRNDLEGPPLKADIDNRRIIRRGIQFGPEVTSQEHHDKKTHHGRGLLFVCYSSSIDDGFHFIQESWANAPNFPVNAVTSAGPIPPLDGVVPGFDAIIGQKVGGGIRQISGTNPNDPTTNITLPDQDFVVPRGGEYFFSPSITALKTKFAIGVASPAPHSQAPISA
notes: DyP4 without OsmY fusion, pET-24a(+)-DyP4 (NdeI/EcoRI), codon-optimized, untagged, E. coli BL21 (DE3), ion-exchange and SEC purified; forward primer encodes MTTPAPPL
- Km: 895 ± 65 µM
- kcat: 3.86 ± 0.08 s⁻¹
- kcat/Km: 4310 ± 410 M⁻¹ s⁻¹

B2: DyP4 (dye-decolorizing peroxidase 4) (Pleurotus ostreatus PC15; I56V/K109R/N227S/N312S) (protein)
chain: MTTPAPPLDLNNIQGDILGGLPKRTETYFFFDVTNVDQFKANMAHFIPHIKTSAGVIKDREAIKEHKRQKKPGLVPMAAVNVSFSHLGLQKLGITDDLSDNAFTTGQRRDAEILGDPGSKNGDAFTPAWEAPFLKDIHGVIFVAGDCHGSVNKKLDEIKHIFGVGTSHASISEVTHVRGDVRPGDVHAHEHFGFLDGISNPAVEQFDQNPLPGQDPIRPGFILAKESGDSRAAARPDWAKDGSFLTFRYLFQMVPEFDDFLESNPIVLPGLSRKEGSELLGARIVGRWKSGAPIEITPLKDDPKLAADAQRSNKFDFGDSLVRGDQTKCPFAAHIRKTYPRNDLEGPPLKADIDNRRIIRRGIQFGPEVTSQEHHDKKTHHGRGLLFVCYSSSIDDGFHFIQESWANAPNFPVNAVTSAGPIPPLDGVVPGFDAIIGQKVGGGIRQISGTNPNDPTTNITLPDQDFVVPRGGEYFFSPSITALKTKFAIGVASPAPHSQAPISA
notes: as for B1
- Km (variant 4D4): 390 ± 59 µM
- kcat (variant 4D4): 4.52 ± 0.15 s⁻¹
- kcat/Km (variant 4D4): 11600 ± 2140 M⁻¹ s⁻¹

B3: DyP4 (dye-decolorizing peroxidase 4) (Pleurotus ostreatus PC15; I56V/K109R/N312S) (protein)
chain: MTTPAPPLDLNNIQGDILGGLPKRTETYFFFDVTNVDQFKANMAHFIPHIKTSAGVIKDREAIKEHKRQKKPGLVPMAAVNVSFSHLGLQKLGITDDLSDNAFTTGQRRDAEILGDPGSKNGDAFTPAWEAPFLKDIHGVIFVAGDCHGSVNKKLDEIKHIFGVGTSHASISEVTHVRGDVRPGDVHAHEHFGFLDGISNPAVEQFDQNPLPGQDPIRPGFILAKENGDSRAAARPDWAKDGSFLTFRYLFQMVPEFDDFLESNPIVLPGLSRKEGSELLGARIVGRWKSGAPIEITPLKDDPKLAADAQRSNKFDFGDSLVRGDQTKCPFAAHIRKTYPRNDLEGPPLKADIDNRRIIRRGIQFGPEVTSQEHHDKKTHHGRGLLFVCYSSSIDDGFHFIQESWANAPNFPVNAVTSAGPIPPLDGVVPGFDAIIGQKVGGGIRQISGTNPNDPTTNITLPDQDFVVPRGGEYFFSPSITALKTKFAIGVASPAPHSQAPISA
notes: as for B1
- Km (variant 3F6): 427 ± 55 µM
- kcat (variant 3F6): 5.02 ± 0.15 s⁻¹
- kcat/Km (variant 3F6): 11800 ± 1860 M⁻¹ s⁻¹
